# What was measured:
# [1] = biological target: OrfGExt-A204C-A264C (Streptococcus thermophilus); test: SEC-MALS; soluble proteins, Superdex 200 Increase, 50 mM tris-HCl, 100 mM NaCl, pH 8
# [2] = biological target: OrfGExt-A204C-A264C (Streptococcus thermophilus); test: crystal structure; sitting drop, 20°C; WT in 1.26 M ammonium sulfate, 100 mM sodium cacodylate pH 6.5; A204C-A264C in 40% PEG 300, 100 mM potassium phosphate citrate pH 4.2
# [3] = biological target: full-length OrfG-A204C-A264C (purified) (Streptococcus thermophilus); test: SEC-MALS; membrane proteins, Superose 6 10/300 Increase, 50 mM tris-HCl pH 8, 300 mM NaCl, 0.1% OGNG
# [4] = biological target: OrfGExt (purified, WT) (Streptococcus thermophilus); test: crystal structure; sitting drop, 20°C; WT in 1.26 M ammonium sulfate, 100 mM sodium cacodylate pH 6.5; A204C-A264C in 40% PEG 300, 100 mM potassium phosphate citrate pH 4.2
# [5] = biological target: Orf13-V164C-Q280C (not stated (Tn916, an ICE widespread in Enterococcus faecalis and other firmicutes)); test: SEC-MALS; soluble proteins, Superdex 200 Increase, 50 mM tris-HCl, 100 mM NaCl, pH 8
# [6] = biological target: full-length OrfG-A204C-A264C produced in S. thermophilus (Streptococcus thermophilus); test: cross-linking; disulfide cross-linking of engineered cysteines in S. thermophilus; membrane fractions with or without DTT, SDS-PAGE, Western blot with Ab-G
substance,measurement,setting,value
OrfGExt-A204C-A264C (domain or fragment),stoichiometry N,[1],3
same,stoichiometry N,[2],3
full-length OrfG-A204C-A264C (purified) (natural protein),stoichiometry N,[3],3
"OrfGExt (purified, WT) (domain or fragment)",stoichiometry N,[4],3
Orf13-V164C-Q280C (domain or fragment),stoichiometry N,[5],3
full-length OrfG-A204C-A264C produced in S. thermophilus (natural protein),stoichiometry N,[6],3

# Source: PMC11753425
